We go through one protein from FireProtDB (doi:10.1046/j.1432-1327.1999.00751.x).

The conditions of this data set: Pseudomonas aeruginosa (strain ATCC 15692 / DSM 22644 / CIP 104116 / JCM 14847 / LMG 12228 / 1C / PRS 101 / PAO1); pH 7.2; 20 °C; GdnHCl; CD + Fluorescence; Tris-HCl 50 mM; reversible: yes; whole UniProt chain shown.

B1: Azurin wild type, P00282 (protein)
chain: MLRKLAAVSLLSLLSAPLLAAECSVDIQGNDQMQFNTNAITVDKSCKQFTVNLSHPGNLPKNVMGHNWVLSTAADMQGVVTDGMASGLDKDYLKPDDSRVIAHTKLIGSGEKDSVTFDVSKLKEGEQYMFFCTFPGHSALMKGTLTLK
On to B1, for which the denaturant m value is 3.3 kcal/mol/M, the “denaturant midpoint (higher = more stable)” value is 2.78 M and the unfolding free energy is 9.4 kcal/mol.
